Test results reported in paper doi:10.1101/2020.09.29.318410.

Target: T4Lnano fusion protein (CBP - ER/K motif - T4L - linker - CaM)
Test: crystal structure

T4Lnano fusion protein (CBP - ER/K motif - T4L - linker - CaM)
stoichiometry N: 2
